Data: publication PMC5362243, “A rare IL33 loss-of-function mutation reduces blood eosinophil counts and protects from asthma” (PLoS Genetics, 2017)

Biological target: T1, Human ST2-Flag-His (recombinant IL-33R, extracellular domain) (human, UniProt Q01638-1 19-328)
T1 construct: human ST2 (IL1RL1, IL-33 receptor), recombinant protein encompassing the extracellular domain; Captured on the chip through its His tag by an immobilised penta-His antibody; also called IL-33R/ST2; IL1RL1; source: prepared by Amgen
T1 sequence (looked up): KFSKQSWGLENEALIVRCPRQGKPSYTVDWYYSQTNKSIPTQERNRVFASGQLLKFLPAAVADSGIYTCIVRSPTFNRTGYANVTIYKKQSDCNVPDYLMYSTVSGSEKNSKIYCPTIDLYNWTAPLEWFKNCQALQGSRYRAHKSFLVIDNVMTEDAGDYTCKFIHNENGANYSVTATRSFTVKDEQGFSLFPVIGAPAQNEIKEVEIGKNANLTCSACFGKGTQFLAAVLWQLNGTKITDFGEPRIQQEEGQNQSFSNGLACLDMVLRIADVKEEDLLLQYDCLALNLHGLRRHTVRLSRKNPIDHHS
Assay: SPR; Biacore T200, CM5 chip; human ST2-Flag-His captured by amine-coupled penta-His antibody; IL-33 variants injected at 200 nM (180 s association, 300 s dissociation); 25°C, HBS-P (10 mM HEPES pH 7.4, 150 mM NaCl, 0.05% P20); single replicate
Details: both partners purified

- binding result: binds
B1: IL-33 (95-270), wild type cytokine domain (domain or fragment, human, UniProt O95760-1 95-270, looked up)
chain: AFGISGVQKYTRALHDSSITGISPITEYLASLSTYNDQSITFALEDESYEIYVEDLKKDEKKDKVLLSYYESQHPSNESGDGVDGKMLMVTLSPTKDFWLHANNKEHSVELHKCEKPLPDQAFFVLHNMHSNCVSFECKTDPGVFIGVKDNHLALIKVDSSENLCTENILFKLSET
notes: human interleukin-33, residues 95-270 of the 270-residue protein, released by thrombin cleavage from a poly-His fusion (pET24a); Start at residue 95 chosen after the natural processing of IL-33; also called wild type IL-33 (95–270); IL-33 (95–270) (Amgen); source: E. coli, purified (nickel HisTrap, SEC, thrombin cleavage, SEC); not shown: poly-His, N-terminal, cleaved
